For orientation: koff means a measure of how fast the partners let go of each other.

The record followed here is PMC8240387 (2021).

For assay [1], the target named is soluble FcγRIIIa (UniProt P08637 17-208). Description: SPR.
The target in assay [2] is recombinant, soluble HIV-1 UG37 gp140 (HIV-1 clade A strain 92UG037). Description: SPR. On the technique in general: Surface plasmon resonance follows binding to a sensor surface in real time, without labels.

Sequence of soluble FcγRIIIa (P08637 17-208): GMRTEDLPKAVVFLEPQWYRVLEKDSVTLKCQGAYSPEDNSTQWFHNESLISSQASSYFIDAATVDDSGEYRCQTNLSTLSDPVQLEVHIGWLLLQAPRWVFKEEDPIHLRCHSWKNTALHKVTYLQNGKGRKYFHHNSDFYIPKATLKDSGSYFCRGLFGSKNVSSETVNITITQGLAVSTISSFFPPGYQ

B1: Mammalian cell-expressed N6 (mN6), broadly neutralising anti-HIV monoclonal antibody N6 expressed in HEK-293T cells (antibody)
chain 1: RAHLVQSGTAMKKPGASVRVSCQTSGYTFTAHILFWFRQAPGRGLEWVGWIKPQYGAVNFGGGFRDRVTLTRDVYREIAYMDIRGLKPDDTAVYYCARDRSYGDSSWALDAWGQGTTVVVSA
chain 2: YIHVTQSPSSLSVSIGDRVTINCQTSQGVGSDLHWYQHKPGRAPKLLIHHTSSVEDGVPSRFSGSGFHTSFNLTISDLQADDIATYYCQVLQFFGRGSRLHIK
modifications: N-glycosylated (size shift on PNGaseF digestion) | N-glycosylated (size shift on PNGaseF digestion)
For the molecule B1, the results for the koff in assay [1] and in assay [2] were 0.17 s⁻¹ and 0.000189 s⁻¹, respectively.

B2: Plant-expressed N6 (pN6), broadly neutralising anti-HIV monoclonal antibody N6 expressed in glycoengineered ΔXF N. benthamiana (antibody)
chain 1: B1 chain 1
chain 2: B1 chain 2
modifications: N-glycosylated: GnGn 81.67%, fucosylated 0.69%, no xylosylation, 6.48% non-glycosylated | N-glycosylated: mature complex-type glycans, α(1,3)-fucose 20.93%, no xylosylation, no high mannose …
Turning to B2, the koff turned out to be 0.016 s⁻¹ in assay [1] and 0.000115 s⁻¹ in assay [2].
